Reference: patent US20140242093A1, “METHODS AND COMPOSITIONS FOR MODULATING THE INNATE IMMUNE RESPONSE AND/OR MYOGENESIS IN A MAMMALIAN SUBJECT” (FRED HUTCHINSON CANCER RESEARCH CENTER, priority 2011, published 2014)

System: control human primary myoblasts
Test: Expression microarray of primary myoblasts transduced with lentivirus carrying DUX4-fl, DUX4-s or GFP
Method: Primary human myoblasts were collected and cultured as previously described (Snider et al., 2010). Primary myoblasts were maintained at or below 70% confluency for proliferation. For differentiation, cells were allowed to reach 95-100% confluency in growth medium. Once confluency was reached, the cells were changed to differentiation medium (F10 media supplemented with 1% horse serum, 10 μg/mL insulin, and 10 μg/mL transferrin, penicillin/streptomycin) and maintained for 4 days. Human RD cells were grown in DMEM in 10% bovine calf serum (Hyclone) and penicillin/streptomycin. The primary myoblasts were transduced with lentivirus carrying DUX-fl, DUX4- or GFP (MOI=15).
Expression microarrays were performed on the transduced cells at 24 hours after transduction as follows. […] Samples were analyzed by Illumina Human Whole Genome microarrays. Probe intensities were corrected, normalized, and summarized by the Lumi package of Bioconductor (Du et al., 2008). Differentially expressed genes were identified by the LIMMA package of Bioconductor (Wettenhall and Smyth, 2004). Gene set enrichment analysis (GSEA) was performed using the Bioconductor GOstats package (Falcon and Gentleman, 2007).

B1: DUX4-s: short splice form of DUX4 (SEQ ID NO:112), keeps the double-homeobox domains, lacks the C-terminal activation domain (protein, listed as Homo sapiens)
chain: MALPTPSDSTLPAEARGRGRRRRLVWTPSQSEALRACFERNPYPGIATRERLAQAIGIPEPRVQIWFQNERSRQLRQHRRESRPWPGRRGPPEGRRKRTAVTGSQTALLLRAFEKDRFPGIAAREELARETGLPESRIQIWFQNRRARHPGQGGRAPAQV
MYBPHL expression fc (cultured human skeletal muscle): −0.5205 | MYF5 expression fc (cultured human skeletal muscle): 0.291 | MYH13 expression fc (cultured human skeletal muscle): −1.541 | NACC2 expression fc (cultured human skeletal muscle): 0.9823 | NFIL3 expression fc (cultured human skeletal muscle): 0.3195 | NFKB1 expression fc (cultured human skeletal muscle): 0.05546 | NFKBIZ expression fc (cultured human skeletal muscle): −0.2644 | NINJ1 expression fc (cultured human skeletal muscle): 0.2107 | NPTX2 expression fc (cultured human skeletal muscle): 0.122 | NRXN2 expression fc (cultured human skeletal muscle): −0.2444 | NT5E expression fc (cultured human skeletal muscle): 0.489 | OCEL1 expression fc (cultured human skeletal muscle): −0.0991 | P2RX6 expression fc (cultured human skeletal muscle): −0.7432 | PARP3 expression fc (cultured human skeletal muscle): 0.1606 | PCK2 expression fc (cultured human skeletal muscle): 0.4194 | PCTK3 expression fc (cultured human skeletal muscle): 0.5932 | PDK4 expression fc (cultured human skeletal muscle): 0.02699 | PDPN expression fc (cultured human skeletal muscle): −0.2902 | PFKFB4 expression fc (cultured human skeletal muscle): 0.4582 | PHF15 expression fc (cultured human skeletal muscle): 0.2557 | PHLDA3 expression fc (cultured human skeletal muscle): 0.1958 | PLA2G4C expression fc (cultured human skeletal muscle): 0.07403 | PLEKHA4 expression fc (cultured human skeletal muscle): 1.33 | PLIN2 expression fc (cultured human skeletal muscle): 0.6107 | PLXNB1 expression fc (cultured human skeletal muscle): −0.09843 | PLXNB2 expression fc (cultured human skeletal muscle): 0.2031 | PPAP2B expression fc (cultured human skeletal muscle): 0.05885 | PPP3CC expression fc (cultured human skeletal muscle): 0.2562 | PRDM1 expression fc (cultured human skeletal muscle): −0.09376 | PRKCD expression fc (cultured human skeletal muscle): 0.349 | PSMB10 expression fc (cultured human skeletal muscle): 0.7464 | PSME2 expression fc (cultured human skeletal muscle): 0.4304 | PTGES expression fc (cultured human skeletal muscle): 0.3116 | PTPRU expression fc (cultured human skeletal muscle): 0.2612 | RALGDS expression fc (cultured human skeletal muscle): 0.0686 | RBCK1 expression fc (cultured human skeletal muscle): 0.326 | RBM43 expression fc (cultured human skeletal muscle): 0.3215 | RCAN1 expression fc (cultured human skeletal muscle): 0.9917 | RELB expression fc (cultured human skeletal muscle): 0.2914 | RGS20 expression fc (cultured human skeletal muscle): 0.08652 | RHBDF2 expression fc (cultured human skeletal muscle): 0.3815 | RRAS expression fc (cultured human skeletal muscle): −0.1908 | RRBP1 expression fc (cultured human skeletal muscle): 0.09904 | RTKN expression fc (cultured human skeletal muscle): −0.2678 | RTTN expression fc (cultured human skeletal muscle): 0.009387 | RUSC1 expression fc (cultured human skeletal muscle): 0.03464 | SERPING1 expression fc (cultured human skeletal muscle): 1.214 | SESN1 expression fc (cultured human skeletal muscle): −0.1133 | SHISA5 expression fc (cultured human skeletal muscle): −0.2735 | SIX5 expression fc (cultured human skeletal muscle): −0.3614 | SLC16A3 expression fc (cultured human skeletal muscle): 0.4873 | SLC22A18 expression fc (cultured human skeletal muscle): −0.05235 | SLC25A28 expression fc (cultured human skeletal muscle): 0.7251 | SLC39A14 expression fc (cultured human skeletal muscle): 0.4801 | SPTLC3 expression fc (cultured human skeletal muscle): 0.2428 | SQSTM1 expression fc (cultured human skeletal muscle): 0.1771 | SRGN expression fc (cultured human skeletal muscle): 0.2031 | STC1 expression fc (cultured human skeletal muscle): 0.8132 | STEAP3 expression fc (cultured human skeletal muscle): −0.291 | SUSD2 expression fc (cultured human skeletal muscle): −2.022 | TAPBP expression fc (cultured human skeletal muscle): 0.474 | TCEA3 expression fc (cultured human skeletal muscle): −0.1206 | TCP11L1 expression fc (cultured human skeletal muscle): 0.7816 | TMEM45A expression fc (cultured human skeletal muscle): 0.4128 | TMEM173 expression fc (cultured human skeletal muscle): 0.3673 | TNFAIP2 expression fc (cultured human skeletal muscle): 0.05713 | TNFRSF1A expression fc (cultured human skeletal muscle): 0.2727 | TNFRSF6B expression fc (cultured human skeletal muscle): 0.00925 | TNFSF13B expression fc (cultured human skeletal muscle): 2.19 | TNS3 expression fc (cultured human skeletal muscle): −0.1648 | TRAF3IP2 expression fc (cultured human skeletal muscle): 0.7299 | TRIP6 expression fc (cultured human skeletal muscle): 0.003438 | TRNP1 expression fc (cultured human skeletal muscle): 0.007844 | TSC22D3 expression fc (cultured human skeletal muscle): 0.2002 | VASN expression fc (cultured human skeletal muscle): 0.2877 | VEZF1 expression fc (cultured human skeletal muscle): −0.6876 | XBP1 expression fc (cultured human skeletal muscle): 0.3357 | ZBTB4 expression fc (cultured human skeletal muscle): 0.002479 | ZC3H12A expression fc (cultured human skeletal muscle): 0.5426 | ZFHX3 expression fc (cultured human skeletal muscle): 0.5029 | ZFP36L2 expression fc (cultured human skeletal muscle): 0.7338 | ZFP90 expression fc (cultured human skeletal muscle): −0.1973 | ZNF337 expression fc (cultured human skeletal muscle): −0.04356 | ZNF395 expression fc (cultured human skeletal muscle): 0.2584 | Log2 Fc AMACR (vs lenti-GFP, 24 h): 0.1 log2 | Log2 Fc ARIH1 (vs lenti-GFP, 24 h): 0.8 log2 | Log2 Fc ARS2 (vs lenti-GFP, 24 h): −0.2 log2 | Log2 Fc CBARA1 (vs lenti-GFP, 24 h): −0.2 log2 | Log2 Fc CD24 (vs lenti-GFP, 24 h): −0.4 log2 | Log2 Fc CSAG3 (vs lenti-GFP, 24 h): 0.1 log2 | Log2 Fc CSE1L (vs lenti-GFP, 24 h): 0.1 log2 | Log2 Fc CWC15 (vs lenti-GFP, 24 h): 0.1 log2 | Log2 Fc CXADR (vs lenti-GFP, 24 h): −0.1 log2 | Log2 Fc CXCR4 (vs lenti-GFP, 24 h): −0.1 log2 | Log2 Fc DBR1 (vs lenti-GFP, 24 h): 0.2 log2 | Log2 Fc DEFB103B (vs lenti-GFP, 24 h): 0.1 log2 | Log2 Fc FBXO33 (vs lenti-GFP, 24 h): 0.2 log2 | Log2 Fc FGFR3 (vs lenti-GFP, 24 h): 0.0 log2 | Log2 Fc FLJ45337 (vs lenti-GFP, 24 h): −0.2 log2 | Log2 Fc GTF2F1 (vs lenti-GFP, 24 h): 0.3 log2 | Log2 Fc HNRNPCL1 (vs lenti-GFP, 24 h): −0.1 log2 | Log2 Fc HOXB2 (vs lenti-GFP, 24 h): 0.0 log2 | Log2 Fc HSPA2 (vs lenti-GFP, 24 h): −0.3 log2 | Log2 Fc ID2 (vs lenti-GFP, 24 h): 0.3 log2 | Log2 Fc IFRD1 (vs lenti-GFP, 24 h): −0.2 log2 | Log2 Fc JUP (vs lenti-GFP, 24 h): −0.1 log2 | Log2 Fc KHDC1L (vs lenti-GFP, 24 h): −0.1 log2 | Log2 Fc MBD3L2 (vs lenti-GFP, 24 h): 0.0 log2 | Log2 Fc MED26 (vs lenti-GFP, 24 h): 0.1 log2 | Log2 Fc MGC10997 (vs lenti-GFP, 24 h): −0.3 log2 | Log2 Fc PABPN1 (vs lenti-GFP, 24 h): −0.3 log2 | Log2 Fc PELI1 (vs lenti-GFP, 24 h): 0.1 log2 | Log2 Fc PNMA6B (vs lenti-GFP, 24 h): −0.2 log2 | Log2 Fc PRAMEF1 (vs lenti-GFP, 24 h): 0.1 log2 | Log2 Fc PVRL3 (vs lenti-GFP, 24 h): 0.4 log2 | Log2 Fc RMRP (vs lenti-GFP, 24 h): 0.1 log2 | Log2 Fc RNGTT (vs lenti-GFP, 24 h): −0.6 log2 | Log2 Fc RPPH1 (vs lenti-GFP, 24 h): 0.2 log2 | Log2 Fc RRN3 (vs lenti-GFP, 24 h): 0.1 log2 | Log2 Fc SFRS2B (vs lenti-GFP, 24 h): −0.3 log2 | Log2 Fc SFRS17A (vs lenti-GFP, 24 h): 0.2 log2 | Log2 Fc SIAH1 (vs lenti-GFP, 24 h): −0.1 log2 | Log2 Fc SLC2A14 (vs lenti-GFP, 24 h): 0.2 log2 | Log2 Fc SLC34A2 (vs lenti-GFP, 24 h): 0.0 log2 | Log2 Fc SNIP1 (vs lenti-GFP, 24 h): −0.2 log2 | Log2 Fc SON (vs lenti-GFP, 24 h): −0.3 log2 | Log2 Fc SPRYD5 (vs lenti-GFP, 24 h): −0.1 log2 | Log2 Fc SPTY2D1 (vs lenti-GFP, 24 h): −0.3 log2 | Log2 Fc TFIP11 (vs lenti-GFP, 24 h): 0.1 log2 | Log2 Fc THOC4 (vs lenti-GFP, 24 h): −0.2 log2 | Log2 Fc TPRX1 (vs lenti-GFP, 24 h): −0.1 log2 | Log2 Fc TRIM23 (vs lenti-GFP, 24 h): 0.6 log2 | Log2 Fc TRIM43 (vs lenti-GFP, 24 h): 0.0 log2 | Log2 Fc USP29 (vs lenti-GFP, 24 h): −0.1 log2 | Log2 Fc ZNF217 (vs lenti-GFP, 24 h): −0.3 log2 | Log2 Fc ZNF705A (vs lenti-GFP, 24 h): −0.1 log2 | Log2 Fc ZNHIT6 (vs lenti-GFP, 24 h): 0.3 log2 | Log2 Fc ZSCAN2 (vs lenti-GFP, 24 h): −0.2 log2 | Log2 Fc ZSCAN4 (vs lenti-GFP, 24 h): 0.0 log2
